In the supplement of paper PMC9732359:
± gives the uncertainty stated by the source.

Assay: protein stability index of a GFP-peptide fusion (yeast GPS) (PSI 1-4); higher = more stable; sorted into four equal gates, so the index is relative within each strain
Outline: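 Plasmids isolated from each sorting gate were PCR-amplified and Illumina-sequenced, and barcodes assigned the reads to strains. The gates, four of equal size, were set by GFP/Cherry fluorescence ratio on mid-log cultures in leucine-free medium. These cultures were yeast carrying a pooled library of tiled 17-residue yeast protein peptides fused downstream of GFP on a plasmid that also expresses Cherry. The protein stability index is the sum of every gate's read frequency times its gate number.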

ALNGIDINTVNTNLMNG [GRR1]
protein stability index (doa10∆): 3.29 ± 0.051
protein stability index (pdr5∆): 3.2 ± 0.052
protein stability index (san1∆): 3.08 ± 0.042
protein stability index (ubr1∆): 3.1 ± 0.045

NIERKQTRKEYNTSILE [SIN4]
protein stability index (doa10∆): 3.11 ± 0.13
protein stability index (pdr5∆): 2.94 ± 0.062
protein stability index (san1∆): 3.05 ± 0.081
protein stability index (ubr1∆): 3.23 ± 0.082

LLTEELAKSGSTEETTA [TAF14]
protein stability index (doa10∆): 3.05 ± 0.15
protein stability index (pdr5∆): 3.05 ± 0.091
protein stability index (san1∆): 2.82 ± 0.1
protein stability index (ubr1∆): 2.74 ± 0.087

IAPPVAPHDSEATLLTN [SNF5]
protein stability index (doa10∆): 2.99 ± 0.066
protein stability index (pdr5∆): 2.82 ± 0.068
protein stability index (san1∆): 2.93 ± 0.043
protein stability index (ubr1∆): 2.83 ± 0.049

KVIKVLGRTGSRGGVTQ [RPS28A]
protein stability index (doa10∆): 3.02 ± 0.073
protein stability index (pdr5∆): 3.04 ± 0.058
protein stability index (san1∆): 2.73 ± 0.085
protein stability index (ubr1∆): 3.12 ± 0.083

PFLNETKPGVYYVPYSK [RPC82]
protein stability index (doa10∆): 3.09 ± 0.12
protein stability index (pdr5∆): 2.97 ± 0.13
protein stability index (san1∆): 3.03 ± 0.064
protein stability index (ubr1∆): 3.36 ± 0.091

KPIQNGEIIDISAFTQF [ARP9]
protein stability index (doa10∆): 3.02 ± 0.098
protein stability index (pdr5∆): 2.76 ± 0.085
protein stability index (san1∆): 2.64 ± 0.091
protein stability index (ubr1∆): 2.98 ± 0.061

FNEENGEDSTKPLGPCD [POP1]
protein stability index (doa10∆): 3.34 ± 0.14

AFITQLESSITDAGVLA [YJL039C/NUP192]
protein stability index (doa10∆): 1.54 ± 0.06
protein stability index (pdr5∆): 1.6 ± 0.057
protein stability index (san1∆): 1.16 ± 0.14
protein stability index (ubr1∆): 1.08 ± 0.096

WRKSDRELTKNILWRIA [SIR4]
protein stability index (doa10∆): 2.91 ± 0.12
protein stability index (pdr5∆): 1.82 ± 0.088
protein stability index (san1∆): 2.09 ± 0.25
protein stability index (ubr1∆): 2.54 ± 0.089

QLVTREAQIKDWVENEL [FAS2]
protein stability index (doa10∆): 3.44 ± 0.1
protein stability index (pdr5∆): 3.19 ± 0.1
protein stability index (san1∆): 3.39 ± 0.065
protein stability index (ubr1∆): 3.11 ± 0.064

TGANSIYSVEKKISRLP [UBP6]
protein stability index (doa10∆): 3 ± 0.08
protein stability index (pdr5∆): 3.52 ± 0.11
protein stability index (san1∆): 3.07 ± 0.059
protein stability index (ubr1∆): 3.26 ± 0.037

DKYHEQWIKFLLHTLYL [SSN8]
protein stability index (doa10∆): 2.62 ± 0.1
protein stability index (pdr5∆): 2.2 ± 0.076
protein stability index (san1∆): 1.93 ± 0.13
protein stability index (ubr1∆): 2.43 ± 0.052

DRGLSIKLNGSTLLCTD [SNU114]
protein stability index (doa10∆): 3.17 ± 0.14
protein stability index (pdr5∆): 2.76 ± 0.08
protein stability index (san1∆): 2.34 ± 0.092
protein stability index (ubr1∆): 3 ± 0.2

FGKLAFPTRLGQGYRKV [YJL039C/NUP192]
protein stability index (doa10∆): 2.98 ± 0.18
protein stability index (pdr5∆): 1.7 ± 0.1
protein stability index (san1∆): 1.54 ± 0.18
protein stability index (ubr1∆): 1.62 ± 0.077

IYKRGQAGVTKASVTIV [SMC2]
protein stability index (doa10∆): 1.61 ± 0.093
protein stability index (pdr5∆): 1.73 ± 0.083
protein stability index (san1∆): 1.78 ± 0.13
protein stability index (ubr1∆): 1.16 ± 0.11

LKEDDSSLYEASLNALK [RPN1]
protein stability index (doa10∆): 3.44 ± 0.24
protein stability index (pdr5∆): 3.18 ± 0.14
protein stability index (san1∆): 3.5 ± 0.12
protein stability index (ubr1∆): 2.95 ± 0.093

DIPTIADEHFWADNYER [BRN1]
protein stability index (doa10∆): 3.14 ± 0.2
protein stability index (pdr5∆): 3.18 ± 0.1
protein stability index (san1∆): 3.34 ± 0.069
protein stability index (ubr1∆): 3.22 ± 0.04

HLPCTIEAEEAEEIGVE [RPN8]
protein stability index (doa10∆): 1.8 ± 0.078
protein stability index (pdr5∆): 1.74 ± 0.082
protein stability index (san1∆): 2.59 ± 0.11
protein stability index (ubr1∆): 2.89 ± 0.053

PDGTLIASAGKDGEIML [ASC1]
protein stability index (doa10∆): 3.06 ± 0.073
protein stability index (pdr5∆): 3.26 ± 0.091
protein stability index (san1∆): 3.29 ± 0.045
protein stability index (ubr1∆): 2.8 ± 0.045

VDSNLPDDEKFTDENTI [RPC40]
protein stability index (doa10∆): 2.35 ± 0.15
protein stability index (pdr5∆): 3.46 ± 0.21
protein stability index (san1∆): 2.02 ± 0.19

LNLPLQFSLPNGDNSTT [SNF12]
protein stability index (doa10∆): 2.48 ± 0.047
protein stability index (pdr5∆): 1.99 ± 0.043
protein stability index (san1∆): 2.283 ± 0.013
protein stability index (ubr1∆): 2.08 ± 0.038

YLTGGQQPTASDNIASL [SMD1]
protein stability index (doa10∆): 3 ± 0.21
protein stability index (pdr5∆): 2.57 ± 0.18
protein stability index (san1∆): 3.04 ± 0.099
protein stability index (ubr1∆): 2.61 ± 0.18

HQQRMSRTAADILLRLC [YCG1]
protein stability index (doa10∆): 2.48 ± 0.29
protein stability index (pdr5∆): 1.63 ± 0.2
protein stability index (ubr1∆): 2.66 ± 0.1

LQKRVIEHNLRVISEYY [RPN5]
protein stability index (doa10∆): 2.02 ± 0.12
protein stability index (pdr5∆): 2.27 ± 0.11
protein stability index (san1∆): 2.77 ± 0.069
protein stability index (ubr1∆): 1.37 ± 0.095

TTAEPKAKRAKTGSAST [TAF14]
protein stability index (doa10∆): 3.2 ± 0.077
protein stability index (pdr5∆): 3.14 ± 0.093
protein stability index (san1∆): 3.34 ± 0.053
protein stability index (ubr1∆): 3.29 ± 0.053

NGDEGDDENEPKRKRRL [YOR098C/NUP1]
protein stability index (doa10∆): 3.38 ± 0.11
protein stability index (pdr5∆): 3.24 ± 0.14
protein stability index (san1∆): 3.17 ± 0.083
protein stability index (ubr1∆): 3.06 ± 0.071

VSQMVAVVGQQIISGNR [RPO31]
protein stability index (doa10∆): 3.2 ± 0.14
protein stability index (pdr5∆): 3.14 ± 0.15
protein stability index (san1∆): 3 ± 0.094
protein stability index (ubr1∆): 2.68 ± 0.13

MNYLLDNKINEIKLLEI [CSI1]
protein stability index (doa10∆): 2.91 ± 0.12
protein stability index (pdr5∆): 2.81 ± 0.098
protein stability index (san1∆): 2.67 ± 0.069
protein stability index (ubr1∆): 2.89 ± 0.091

ELPLVITMPATNGKPDM [ARP7]
protein stability index (doa10∆): 2.9 ± 0.088
protein stability index (pdr5∆): 3.04 ± 0.074
protein stability index (san1∆): 2.9 ± 0.065
protein stability index (ubr1∆): 2.99 ± 0.059

AIQFVKENELLFGEKSI [YCS4]
protein stability index (doa10∆): 2.19 ± 0.098
protein stability index (pdr5∆): 2.09 ± 0.064
protein stability index (san1∆): 2.58 ± 0.16
protein stability index (ubr1∆): 1.92 ± 0.069

TMVIQDEDWSVRIDKAL [ECM29]
protein stability index (doa10∆): 2.84 ± 0.19
protein stability index (pdr5∆): 3.21 ± 0.18

KSSELELQKLVHDLNKY [SMC2]
protein stability index (doa10∆): 3.22 ± 0.088
protein stability index (pdr5∆): 3.41 ± 0.079
protein stability index (san1∆): 3.36 ± 0.045
protein stability index (ubr1∆): 3.4 ± 0.05

QKYNQIQKQIETIQADL [SMC2]
protein stability index (doa10∆): 2.68 ± 0.047
protein stability index (pdr5∆): 2.57 ± 0.042
protein stability index (san1∆): 2.6 ± 0.047
protein stability index (ubr1∆): 2.45 ± 0.031

NLKYLDNSNVMTVKLES [RGR1]
protein stability index (doa10∆): 2.23 ± 0.18
protein stability index (pdr5∆): 1.87 ± 0.11
protein stability index (san1∆): 2.04 ± 0.19
protein stability index (ubr1∆): 2.66 ± 0.12

KCIKYSEKLITKYFEPT [ECM29]
protein stability index (doa10∆): 2.63 ± 0.12
protein stability index (pdr5∆): 3.03 ± 0.13
protein stability index (san1∆): 2.84 ± 0.05
protein stability index (ubr1∆): 2.68 ± 0.074

EEVVSNDEGVWDLVDER [PRP8]
protein stability index (doa10∆): 3.56 ± 0.073
protein stability index (pdr5∆): 3.47 ± 0.057
protein stability index (san1∆): 3.42 ± 0.07
protein stability index (ubr1∆): 3.49 ± 0.058

AKKQNYKLTNDEEGIFS [YCG1]
protein stability index (doa10∆): 3.23 ± 0.098
protein stability index (pdr5∆): 3.45 ± 0.1
protein stability index (san1∆): 3.15 ± 0.074
protein stability index (ubr1∆): 3.19 ± 0.075

VLRLRGALVDRTQPWSI [RPS0A]
protein stability index (doa10∆): 2.65 ± 0.086
protein stability index (pdr5∆): 2.44 ± 0.072
protein stability index (san1∆): 2.52 ± 0.067
protein stability index (ubr1∆): 3.08 ± 0.031

GNGELYMDCLLYDLRAS [SNU114]
protein stability index (doa10∆): 2.03 ± 0.058
protein stability index (pdr5∆): 2.12 ± 0.1
protein stability index (san1∆): 1.91 ± 0.13
protein stability index (ubr1∆): 2.29 ± 0.077

DYVNKTNSHLPAGKQVE [FAS1]
protein stability index (doa10∆): 3.16 ± 0.098
protein stability index (pdr5∆): 3.57 ± 0.24
protein stability index (san1∆): 3.08 ± 0.13
protein stability index (ubr1∆): 3.08 ± 0.11

VVGLGERVSPTDIEEGM [RPT1]
protein stability index (pdr5∆): 3.33 ± 0.24

QNIKAPSVKRQKMAELE [PRP8]
protein stability index (doa10∆): 3.29 ± 0.088
protein stability index (pdr5∆): 3.25 ± 0.07
protein stability index (san1∆): 3.3 ± 0.074
protein stability index (ubr1∆): 3.29 ± 0.077

NDYLEKHSVTEYIFEAH [CDC53]
protein stability index (pdr5∆): 2.79 ± 0.12
protein stability index (san1∆): 3.12 ± 0.094
protein stability index (ubr1∆): 3.17 ± 0.1

GQLGEMAKCLDNPDQGI [YCS4]
protein stability index (doa10∆): 3.13 ± 0.14
protein stability index (pdr5∆): 3.49 ± 0.12
protein stability index (san1∆): 3.39 ± 0.065
protein stability index (ubr1∆): 3.29 ± 0.15

QNDELKFQGVLESEAQK [RPC34]
protein stability index (doa10∆): 3.41 ± 0.11
protein stability index (pdr5∆): 3.21 ± 0.11
protein stability index (san1∆): 3.23 ± 0.061
protein stability index (ubr1∆): 2.93 ± 0.075

IYEVDITVHAPLLPIVE [SNU114]
protein stability index (doa10∆): 2.32 ± 0.056
protein stability index (pdr5∆): 2.29 ± 0.056
protein stability index (san1∆): 2.19 ± 0.088
protein stability index (ubr1∆): 2.52 ± 0.043

LHVEQLSGGQKTVCAIA [SMC3]
protein stability index (doa10∆): 1.58 ± 0.15
protein stability index (pdr5∆): 2.08 ± 0.24
protein stability index (san1∆): 2.09 ± 0.15
protein stability index (ubr1∆): 1.82 ± 0.067

EWHSSLTLKEAELLVLK [PUP2]
protein stability index (pdr5∆): 2.47 ± 0.27
protein stability index (ubr1∆): 1.63 ± 0.25

KIEGVATPQDAQFYLGK [RPL33A]
protein stability index (doa10∆): 2.78 ± 0.086
protein stability index (pdr5∆): 3.12 ± 0.07
protein stability index (san1∆): 3.3 ± 0.063
protein stability index (ubr1∆): 3.25 ± 0.083

VYNNSKDEYLAQLDGRI [NSL1]
protein stability index (doa10∆): 3.33 ± 0.073
protein stability index (pdr5∆): 3.26 ± 0.049
protein stability index (san1∆): 3.17 ± 0.049
protein stability index (ubr1∆): 3.36 ± 0.045

AAHYNRERIKRGAHVEK [PRP8]
protein stability index (san1∆): 2.79 ± 0.29
protein stability index (ubr1∆): 2.77 ± 0.19

NISHLLEIASSIDCLLI [SWI1]
protein stability index (doa10∆): 2.21 ± 0.068
protein stability index (pdr5∆): 2.16 ± 0.046
protein stability index (san1∆): 2.29 ± 0.078
protein stability index (ubr1∆): 2.04 ± 0.035

GTGRSGQGAFGNMCRGG [RPL4A]
protein stability index (doa10∆): 3.49 ± 0.14
protein stability index (pdr5∆): 3.37 ± 0.078
protein stability index (san1∆): 3.33 ± 0.11
protein stability index (ubr1∆): 3.24 ± 0.063
